Kd data for 31 molecules are collected here from PMC10786891, “Massively parallel profiling of RNA-targeting CRISPR-Cas13d”.

Substitutions are numbered along the chain they refer to. Names may count otherwise.

B1: target 1 insU 3' of 22,insA 3' of 22 (mixed)
RNA 1: CACCCGUGCAAAAAUGCAGGGGUCUAAAACUGAGCGGAUAACCUCUCUAUGG
RNA 2: GGGAAUGGAUCCACAUCUACGAAUUCGUACUACAUAGAGAGGUUAUCCGCUCACCGAGAUCGGAAGAGCACACGU
B2: target 1 U11C,G15A (mixed)
RNA 1: B1 RNA 1
RNA 2: GGGAAUGGAUCCACAUCUACGAAUUCGUACCAUAGAAAGGCUAUCCGCUCACCGAGAUCGGAAGAGCACACGU
B3: target 1 C7A,U8A (mixed)
RNA 1: B1 RNA 1
RNA 2: B2 RNA 2 with A37G, C41U, U44A, C45A
B4: target 1 insC 3' of 19,insU 3' of 5 (mixed)
RNA 1: B1 RNA 1
RNA 2: GGGAAUGGAUCCACAUCUACGAAUUCGUACCAUCAGAGAGGUUAUCCGUCUCACCGAGAUCGGAAGAGCACACGU
B5: target 1 G13A,A14C (mixed)
RNA 1: B1 RNA 1
RNA 2: B2 RNA 2 with A37G, A38C, G39A, C41U
B6: target 1 insU 3' of 21,insU 3' of 21 (mixed)
RNA 1: B1 RNA 1
RNA 2: B1 RNA 2 with U31C, A32U, C33U
B7: target 1 insG 3' of 9,insC 3' of 1 (mixed)
RNA 1: B1 RNA 1
RNA 2: GGGAAUGGAUCCACAUCUACGAAUUCGUACCAUAGAGAGGUUAGUCCGCUCACCCGAGAUCGGAAGAGCACACGU
B8: target 1 A1G,U11G (mixed)
RNA 1: B1 RNA 1
RNA 2: B2 RNA 2 with A37G, C41G, A51G
B9: target 1 insA 3' of 12,insA 3' of 11 (mixed)
RNA 1: B1 RNA 1
RNA 2: B1 RNA 2 with U31C, C33U, U35G, A40G, G41A, G42U, U43A
B10: target 1 C6A,U8G (mixed)
RNA 1: B1 RNA 1
RNA 2: B2 RNA 2 with A37G, C41U, U44G, C46A
B11: target 1 insG 3' of 10,insG 3' of 8 (mixed)
RNA 1: B1 RNA 1
RNA 2: B7 RNA 2 with A43G, G44A, C46G, G48C, C49G, U50C, C51U, A52C, C53A
B12: target 1 insU 3' of 13 (mixed)
RNA 1: B1 RNA 1
RNA 2: GGGAAUGGAUCCACAUCUACGAAUUCGUACCAUAGAGAGUGUUAUCCGCUCACCGAGAUCGGAAGAGCACACGU
B13: target 1 complement block 14-16 (mixed)
RNA 1: B1 RNA 1
RNA 2: B2 RNA 2 with A36U, A37C, A38U, C41U
B14: target 1 insA 3' of 22,insA 3' of 8 (mixed)
RNA 1: B1 RNA 1
RNA 2: B4 RNA 2 with C31A, A32C, U33A, C34U, C46A, G48C, U49G
B15: target 1 insU 3' of 17,insC 3' of 5 (mixed)
RNA 1: B1 RNA 1
RNA 2: B4 RNA 2 with C34A, A35G, G36U, U49C
B16: target 1 G5C,C21A (mixed)
RNA 1: B1 RNA 1
RNA 2: B2 RNA 2 with C31A, A37G, C41U, G47C
B17: target 1 U11C,A20U (mixed)
RNA 1: B1 RNA 1
RNA 2: B2 RNA 2 with A32U, A37G
B18: target 1 insG 3' of 19,insA 3' of 7 (mixed)
RNA 1: B1 RNA 1
RNA 2: B4 RNA 2 with C34G, C47A, G48C, U49G
B19: target 1 C6A,U19G (mixed)
RNA 1: B1 RNA 1
RNA 2: B2 RNA 2 with U33G, A37G, C41U, C46A
B20: target 1 G5A,G15C (mixed)
RNA 1: B1 RNA 1
RNA 2: B2 RNA 2 with A37C, C41U, G47A
B21: target 1 insG 3' of 9,insC 3' of 5 (mixed)
RNA 1: B1 RNA 1
RNA 2: B7 RNA 2 with U50C, C51U, A52C, C53A
B22: target 1 insA 3' of 19,insA 3' of 4 (mixed)
RNA 1: B1 RNA 1
RNA 2: B4 RNA 2 with C34A, U49C, C50A
B23: target 1 insG 3' of 7,insC 3' of 5 (mixed)
RNA 1: B1 RNA 1
RNA 2: B7 RNA 2 with G44U, U45C, C46G, U50C, C51U, A52C, C53A
B24: target 1 insA 3' of 7,insU 3' of 5 (mixed)
RNA 1: B1 RNA 1
RNA 2: B7 RNA 2 with G44U, U45C, C46A, C49U, U50C, C51U, A52C, C53A
B25: target 1 insG 3' of 14,insC 3' of 5 (mixed)
RNA 1: B1 RNA 1
RNA 2: B7 RNA 2 with U41G, A43U, G44A, U50C, C51U, A52C, C53A
B26: target 1 insC 3' of 14,insU 3' of 7 (mixed)
RNA 1: B1 RNA 1
RNA 2: B4 RNA 2 with C34A, A35G, G36A, A37G, G38A, A39C, C47U, G48C, U49G
B27: target 1 G13A,G15U (mixed)
RNA 1: B1 RNA 1
RNA 2: B2 RNA 2 with A37U, G39A, C41U
B28: target 1 insG 3' of 9,insG 3' of 4 (mixed)
RNA 1: B1 RNA 1
RNA 2: B7 RNA 2 with U50G, C51U, A52C, C53A
B29: target 1 insC 3' of 14,insA 3' of 7 (mixed)
RNA 1: B1 RNA 1
RNA 2: B4 RNA 2 with C34A, A35G, G36A, A37G, G38A, A39C, C47A, G48C, U49G
B30: target 1 C2U,C21A (mixed)
RNA 1: B1 RNA 1
RNA 2: B2 RNA 2 with C31A, A37G, C41U, C50U
B31: target 1 insG 3' of 6,insG 3' of 4 (mixed)
RNA 1: B1 RNA 1
RNA 2: B7 RNA 2 with G44U, U45C, C47G, U50G, C51U, A52C, C53A

This series deals with T1, EsCas13d, nuclease-dead (Eubacterium siraeum, UniProt B0MS50, R295A;H300A;R849A;H854A).
T1 sequence: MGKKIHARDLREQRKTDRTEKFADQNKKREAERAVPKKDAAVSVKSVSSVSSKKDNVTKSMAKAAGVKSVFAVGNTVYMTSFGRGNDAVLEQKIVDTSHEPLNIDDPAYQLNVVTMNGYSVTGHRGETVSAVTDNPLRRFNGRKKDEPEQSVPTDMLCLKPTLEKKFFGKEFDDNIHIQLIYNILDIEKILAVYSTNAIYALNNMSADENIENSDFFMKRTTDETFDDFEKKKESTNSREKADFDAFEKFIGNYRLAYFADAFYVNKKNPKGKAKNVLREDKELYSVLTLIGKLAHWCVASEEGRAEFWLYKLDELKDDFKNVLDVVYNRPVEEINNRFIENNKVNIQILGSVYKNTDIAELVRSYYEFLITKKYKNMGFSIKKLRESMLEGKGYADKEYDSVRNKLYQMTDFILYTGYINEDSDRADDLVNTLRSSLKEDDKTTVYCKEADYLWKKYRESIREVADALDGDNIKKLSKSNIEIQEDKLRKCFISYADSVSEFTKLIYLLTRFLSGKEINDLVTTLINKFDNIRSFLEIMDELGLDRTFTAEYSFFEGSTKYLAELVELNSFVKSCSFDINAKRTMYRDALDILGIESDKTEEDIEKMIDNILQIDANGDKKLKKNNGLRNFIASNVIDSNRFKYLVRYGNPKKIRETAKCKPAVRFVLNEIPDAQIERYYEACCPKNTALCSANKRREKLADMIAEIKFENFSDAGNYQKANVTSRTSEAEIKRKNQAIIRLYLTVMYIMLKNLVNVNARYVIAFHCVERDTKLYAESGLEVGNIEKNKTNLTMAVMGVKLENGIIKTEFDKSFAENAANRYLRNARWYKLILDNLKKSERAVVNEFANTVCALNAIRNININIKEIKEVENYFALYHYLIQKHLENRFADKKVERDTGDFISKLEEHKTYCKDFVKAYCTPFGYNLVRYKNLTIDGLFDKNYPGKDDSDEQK
Briefly: crRNA (strand 1, pre-loaded); Mg2+; 40 mM Tris-HCl pH 7.5, 150 mM NaCl, 6 mM MgCl2, 1 mM DTT, 0.1% Tween-20, 0.2 mg/ml BSA; 25 C; 10 min per concentration, then washed. The note with it: tags: His6-TwinStrep-SUMO cleaved; N-terminal SNAP kept (SNAP-Surface 488); label: 3' end held by stalled T7 RNA polymerase.
A word on the Kd: it is a measure of binding affinity in units of concentration. Low readings indicate tighter binding, high ones weaker binding. Regarding B1, the Kd came to 4.11 ± 0.31 nM.
In the case of B2 it was 27 ± 3.3 nM.
In the case of B3 it was 7.41 ± 0.23 nM.
The figure for B4 is 39 ± 13 nM; for B5 it is 12 ± 0.7 nM; for B6 it is 72 ± 13 nM.
Molecule B7 registered a Kd of 17.4 ± 1.2 nM.
In the case of B8 it was 23.8 ± 1.6 nM.
In the case of B9, binding was put at a Kd of 29 ± 5 nM.
Molecule B10 returned a dissociation constant Kd of 12.8 ± 0.7 nM.
Molecule B11 returned an equilibrium dissociation constant (Kd) of 21.8 ± 0.7 nM.
In the case of B12, the affinity, expressed as Kd, was 11.4 ± 1.5 nM.
In the case of B13 it was 61 ± 9 nM; in that of B14, 20.9 ± 1.3 nM.
The figure for B15 is 60 ± 14 nM; for B16 it is 27 ± 5 nM.
B17: the equilibrium dissociation constant (Kd) was found to be 55 ± 7 nM.
In the case of B18 it was 36.7 ± 2.9 nM; in that of B19, 46 ± 4 nM.
The figure for B20 is 54 ± 17 nM; for B21 it is 11.3 ± 0.5 nM; for B22 it is 16 ± 1.3 nM.
Consider B23, for which the affinity, expressed as Kd, was 9.8 ± 0.6 nM.
In the case of B24 it was 11.4 ± 0.33 nM; in that of B25, 12.1 ± 1 nM.
Turning to B26, the Kd came out at 41 ± 8 nM.
With B27, binding was put at a Kd of 80 ± 40 nM.
B28 returned an equilibrium dissociation constant (Kd) of 8.9 ± 0.6 nM.
The molecule B29 showed a Kd of 47 ± 10 nM.
Turning to B30, binding was put at a Kd of 28.1 ± 3.1 nM.
The figure for B31 is 8 ± 0.4 nM.
